T1: recombinant human S100A9 (human), P06702
T1 chain: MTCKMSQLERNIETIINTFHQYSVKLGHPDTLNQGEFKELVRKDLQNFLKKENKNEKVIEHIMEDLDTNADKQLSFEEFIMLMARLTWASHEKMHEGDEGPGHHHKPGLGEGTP


Columns and labels:
[1] = target: T1, recombinant human S100A9 (human), P06702; assay: SEC-MALS; 30 µL of protein at 5 mg/mL on a Superose 6 Increase 10/300 GL column; light scattering and refractive index detectors; conditions: remark: other sources report otherwise
[2] = target: the molecule itself; assay: SEC; analytical gel filtration, Superose 6 Increase 3.2/300 column

stoichiometry N [1] | Binder | binding result [2]
2 | recombinant human S100A9, P06702 1-114 (natural protein) MTCKMSQLERNIETIINTFHQYSVKLGHPDTLNQGEFKELVRKDLQNFLKKENKNEKVIEHIMEDLDTNADKQLSFEEFIMLMARLTWASHEKMHEGDEGPGHHHKPGLGEGTP | –
– | recombinant murine S100A9 (natural protein, UniProt P31725 1-113, looked up, cDNA encoding the protein cloned into a pET29+ vector; The homodimeric status is said of r-hS100A9; also called r-mS100A9; not shown: His10, N-terminal, cleaved; MBP, N-terminal, cleaved) MANKAPSQMERSITTIIDTFHQYSRKEGHPDTLSKKEFRQMVEAQLATFMKKEKRNEALINDIMEDLDTNQDNQLSFEECMMLMAKLIFACHEKLHENNPRGHGHSHGKGCGK | binds

— article PMC9287425, “Hepatic non-parenchymal S100A9-TLR4-mTORC1 axis normalizes diabetic ketogenesis” (Nature Communications, 2022)
